In assay [1] the target is HA-tagged LC3B-T50A (phospho-deficient mutant) (UniProt Q9GZQ8 1-120, T50A). Kind of assay: affinity purification with mass spectrometry.
Assay [2] has as its target HA-tagged LC3B-T50E (phospho-mimetic mutant) (UniProt Q9GZQ8 1-120, T50E). Nature of the assay: affinity purification with mass spectrometry.
The next assay has as its target His-tagged LC3B-T50E (human, UniProt Q9GZQ8 1-120, T50E). Nature of the assay: BLI.
The target in another assay is His-tagged LC3B-T50A (human, UniProt Q9GZQ8 1-120, T50A). Kind of assay: BLI.
A further assay has as its target His-tagged LC3B-WT (human, UniProt Q9GZQ8 1-120). Nature of the assay: BLI.

B1: FYCO1 (endogenous, human cells) (natural protein)
chain: MASTNAESQLQRIIRDLQDAVTELSKEFQEAGEPITDDSTSLHKFSYKLEYLLQFDQKEKATLLGNKKDYWDYFCACLAKVKGANDGIRFVKSISELRTSLGKGRAFIRYSLVHQRLADTLQQCFMNTKVTSDWYYARSPFLQPKLSSDIVGQLYELTEVQFDLASRGFDLDAAWPTFARRTLTTGSSAYLWKPPSRSSSMSSLVSSYLQTQEMVSNFDLNSPLNNEALEGFDEMRLELDQLEVREKQLRERMQQLDRENQELRAAVSQQGEQLQTERERGRTAAEDNVRLTCLVAELQKQWEVTQATQNTVKELQTCLQGLELGAAEKEEDYHTALRRLESMLQPLAQELEATRDSLDKKNQHLASFPGWLAMAQQKADTASDTKGRQEPIPSDAAQEMQELGEKLQALERERTKVEEVNRQQSAQLEQLVKELQLKEDARASLERLVKEMAPLQEELSGKGQEADQLWRRLQELLAHTSSWEEELAELRREKKQQQEEKELLEQEVRSLTRQLQFLETQLAQVSQHVSDLEEQKKQLIQDKDHLSQQVGMLERLAGPPGPELPVAGEKNEALVPVNSSLQEAWGKPEEEQRGLQEAQLDDTKVQEGSQEEELRQANRELEKELQNVVGRNQLLEGKLQALQADYQALQQRESAIQGSLASLEAEQASIRHLGDQMEASLLAVRKAKEAMKAQMAEKEAILQSKEGECQQLREEVEQCQQLAEARHRELRALESQCQQQTQLIEVLTAEKGQQGVGPPTDNEARELAAQLALSQAQLEVHQGEVQRLQAQVVDLQAKMRAALDDQDKVQSQLSMAEAVLREHKTLVQQLKEQNEALNRAHVQELLQCSEREGALQEERADEAQQREEELRALQEELSQAKCSSEEAQLEHAELQEQLHRANTDTAELGIQVCALTVEKERVEEALACAVQELQDAKEAASREREGLERQVAGLQQEKESLQEKLKAAKAAAGSLPGLQAQLAQAEQRAQSLQEAAHQELNTLKFQLSAEIMDYQSRLKNAGEECKSLRGQLEEQGRQLQAAEEAVEKLKATQADMGEKLSCTSNHLAECQAAMLRKDKEGAALREDLERTQKELEKATTKIQEYYNKLCQEVTNRERNDQKMLADLDDLNRTKKYLEERLIELLRDKDALWQKSDALEFQQKLSAEERWLGDTEANHCLDCKREFSWMVRRHHCRICGRIFCYYCCNNYVLSKHGGKKERCCRACFQKLSEGPGSPDSSGSGTSQGEPSPALSPASPGPQATGGQGANTDYRPPDDAVFDIITDEELCQIQESGSSLPETPTETDSLDPNAAEQDTTSTSLTPEDTEDMPVGQDSEICLLKSGELMIKVPLTVDEIASFGEGSRELFVRSSTYSLIPITVAEAGLTISWVFSSDPKSISFSVVFQEAEDTPLDQCKVLIPTTRCNSHKENIQGQLKVRTPGIYMLIFDNTFSRFVSKKVFYHLTVDRPVIYDGSDFL
Regarding B1, the “fold change of binding against HA-LC3B-WT” value is roughly 2 fold higher in assay [1] and roughly 5 fold lower in assay [2].

For GQGANTDYRPPDDAVFDIITDEELCQIQESGSSL [FYCO1 peptide (1265–1298 amino acids of the human protein)], the equilibrium dissociation constant (Kd) is roughly 28 µM with His-tagged LC3B-T50E, roughly 6 µM with His-tagged LC3B-T50A and roughly 4.1 µM with His-tagged LC3B-WT.

Values taken from paper PMC8439105 (Current biology : CB, 2021).
